Assay [1] has as its target T1, FHOD1-N (human FHOD1 residues 1–339), wild type (human, UniProt Q9Y613 1-339).
T1 sequence (looked up): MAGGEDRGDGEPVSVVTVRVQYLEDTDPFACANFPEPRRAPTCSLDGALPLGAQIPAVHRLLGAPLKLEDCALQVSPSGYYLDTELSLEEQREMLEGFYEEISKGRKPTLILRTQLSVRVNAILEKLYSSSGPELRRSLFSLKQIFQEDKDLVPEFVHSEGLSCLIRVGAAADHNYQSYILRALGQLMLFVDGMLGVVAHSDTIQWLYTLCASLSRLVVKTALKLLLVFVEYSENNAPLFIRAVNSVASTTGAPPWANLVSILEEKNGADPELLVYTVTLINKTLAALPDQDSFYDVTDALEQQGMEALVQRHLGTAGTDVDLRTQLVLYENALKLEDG
The assay can be described thus: BLI. In general terms: Biolayer interferometry detects binding as a change in optical thickness at a sensor tip.

For assay [2], the target named is T1, FHOD1-N (human FHOD1 residues 1–339), …. Put plainly: SEC.
Assay [3] has the same target. The assay can be described thus: SEC. The source holds these as a separate data set. On the technique in general: SEC sorts molecules by how far they enter the pores of the column.
Assay [4] concerns the target T2, Nes2G SR11–12-FHOD1-N complex (human, UniProt Q9Y613 1-339; Q8WXH0 1425-1649).
T2 sequence (looked up) 1: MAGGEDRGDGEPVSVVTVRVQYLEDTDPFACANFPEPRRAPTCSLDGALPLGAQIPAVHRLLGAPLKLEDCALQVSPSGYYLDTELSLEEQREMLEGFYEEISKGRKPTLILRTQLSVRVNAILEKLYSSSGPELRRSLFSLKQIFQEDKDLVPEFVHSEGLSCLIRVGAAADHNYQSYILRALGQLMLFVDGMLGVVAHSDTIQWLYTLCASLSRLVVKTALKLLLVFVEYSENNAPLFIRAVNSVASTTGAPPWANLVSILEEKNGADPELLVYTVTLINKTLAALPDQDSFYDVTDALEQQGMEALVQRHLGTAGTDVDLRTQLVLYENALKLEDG
T2 sequence (looked up) 2: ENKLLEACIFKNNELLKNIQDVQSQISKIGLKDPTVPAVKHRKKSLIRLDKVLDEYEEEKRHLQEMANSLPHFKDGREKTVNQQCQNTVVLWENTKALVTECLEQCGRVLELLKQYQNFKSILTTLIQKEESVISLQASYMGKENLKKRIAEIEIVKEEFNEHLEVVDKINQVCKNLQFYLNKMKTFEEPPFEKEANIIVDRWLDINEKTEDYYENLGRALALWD
The assay can be described thus: SEC.

Data on seven molecules can be found in paper PMC9122090 (Structure (London, England : 1993), 2021).

B1: N-terminally AVI-tagged, biotinylated Nes1G SR17–18 (residues 1976–2200) (domain or fragment, human, UniProt Q8NF91 1976-2200, looked up)
chain: LAVLKKAFQDQKEELLKSIEDIEERTDKERLKEPTRQALQQRLRVFNQLEDELNSHEHELCWLKDKAKQIAQKDVAFAPEVDREINRLEVTWDDTKRLIHENQGQCCGLIDLMREYQNLKSAVSKVLENASSVIVTRTTIKDQEDLKWAFSKHETAKNKMNYKQKDLDNFTSKGKHLLSELKKIHSSDFSLVKTDMESTVDKWLDVSEKLEENMDRLRVSLSIWD
modifications: biotin on the AVI sequence
As usually defined, the Kd is the free concentration of one partner at which half of the binding sites on the other are occupied at equilibrium, for simple one-to-one binding. For the molecule B1, in assay [1], the Kd worked out at 85 nM.

B2: Nes1G SR18 (human nesprin-1 giant residues 2076–2200) (domain or fragment, UniProt Q8NF91-1 2076-2200, looked up)
chain: ENQGQCCGLIDLMREYQNLKSAVSKVLENASSVIVTRTTIKDQEDLKWAFSKHETAKNKMNYKQKDLDNFTSKGKHLLSELKKIHSSDFSLVKTDMESTVDKWLDVSEKLEENMDRLRVSLSIWD
As for B2, in assay [2], the binding result is “binds”.

B3: Nes1G SR17–18 (human nesprin-1 giant residues 1976–2200) (domain or fragment, UniProt Q8NF91-1 1976-2200, looked up)
chain: LAVLKKAFQDQKEELLKSIEDIEERTDKERLKEPTRQALQQRLRVFNQLEDELNSHEHELCWLKDKAKQIAQKDVAFAPEVDREINRLEVTWDDTKRLIHENQGQCCGLIDLMREYQNLKSAVSKVLENASSVIVTRTTIKDQEDLKWAFSKHETAKNKMNYKQKDLDNFTSKGKHLLSELKKIHSSDFSLVKTDMESTVDKWLDVSEKLEENMDRLRVSLSIWD
Take B3: the binding result in assay [2] was “binds”.

B4: Nes2G SR11–12 (human nesprin-2 giant residues 1425–1649) (domain or fragment, UniProt Q8WXH0-1 1425-1649, looked up)
chain: ENKLLEACIFKNNELLKNIQDVQSQISKIGLKDPTVPAVKHRKKSLIRLDKVLDEYEEEKRHLQEMANSLPHFKDGREKTVNQQCQNTVVLWENTKALVTECLEQCGRVLELLKQYQNFKSILTTLIQKEESVISLQASYMGKENLKKRIAEIEIVKEEFNEHLEVVDKINQVCKNLQFYLNKMKTFEEPPFEKEANIIVDRWLDINEKTEDYYENLGRALALWD
In the case of B4, the binding result in assay [2] is “binds”.

B5: N-terminally AVI-tagged, biotinylated Nes1G SR18 (residues 2076–2200) (domain or fragment, human, UniProt Q8NF91 2076-2200, looked up)
chain: ENQGQCCGLIDLMREYQNLKSAVSKVLENASSVIVTRTTIKDQEDLKWAFSKHETAKNKMNYKQKDLDNFTSKGKHLLSELKKIHSSDFSLVKTDMESTVDKWLDVSEKLEENMDRLRVSLSIWD
modifications: biotin on the AVI sequence
For the molecule B5, the binding result in assay [1] is given as “binds”.

B6: N-terminally AVI-tagged, biotinylated Nes2G SR11–12 (residues 1425–1649) (domain or fragment, human, UniProt Q8WXH0 1425-1649, looked up)
chain: ENKLLEACIFKNNELLKNIQDVQSQISKIGLKDPTVPAVKHRKKSLIRLDKVLDEYEEEKRHLQEMANSLPHFKDGREKTVNQQCQNTVVLWENTKALVTECLEQCGRVLELLKQYQNFKSILTTLIQKEESVISLQASYMGKENLKKRIAEIEIVKEEFNEHLEVVDKINQVCKNLQFYLNKMKTFEEPPFEKEANIIVDRWLDINEKTEDYYENLGRALALWD
modifications: biotin on the AVI sequence
In assay [1], B6 showed a Kd of 375 nM.

B7: FHOD1 DAD domain (residues 1052–1164), released from MBP-DAD by 3C protease (domain or fragment, human, UniProt Q9Y613 1052-1164, looked up)
chain: SMKSLLTSRPEDTTHNRRSRGMVQSSSPIMPTVGPSTASPEEPPGSSLPSDTSDEIMDLLVQSVTKSSPRALAARERKRSRGNRKSLRRTLKSGLGDDLVQALGLSKGPGLEV
Turning to B7, the binding result in assay [3] and in assay [4] was “binds” throughout.
